The record followed here is article PMC8184587.

One data set addresses T1, BRM AT (AT-hook alone) (Homo sapiens, UniProt P51531 1358-1377).
T1 chain: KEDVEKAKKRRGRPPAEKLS
The data set is described as follows: NMR.

The next data set has as its target ATGGGP-L-BD (Homo sapiens, UniProt P51531-2 1358-1490, R1368G;R1370G). Nature of the data set: NMR.
The next data set concerns the target ATDGDP-L-BD (Homo sapiens, UniProt P51531-2 1358-1490, R1368D;R1370D). Nature of the data set: NMR.
Data set [1] concerns the target T2, BRM AT-L-BD WT (BRM-B) (Homo sapiens, UniProt P51531-2 1358-1490). The data set is described as follows: NMR.
Data set [2] has as its target T2, BRM AT-L-BD WT (BRM-B). Nature of the data set: fluorescence anisotropy. (In fluorescence polarisation assays a small probe gives low polarisation when free and higher when bound to something large.)
Another data set concerns the target AT-LANAA-BD (Homo sapiens, UniProt P51531-2 1358-1490, P1378A;P1380A;P1381A). The data set is described as follows: fluorescence anisotropy.

B1: 10 bp NMR dsDNA (dsDNA)
DNA 1: CTCAATTGGT
DNA 2: ACCAATTGAG
As a reminder, the Kd is the constant that tells how readily two partners part at equilibrium. Low readings indicate tighter binding, high ones weaker binding. For the molecule B1, the Kd is 220 ± 30 µM in the data set with BRM AT (AT-hook alone), 130 ± 30 µM with ATGGGP-L-BD, 410 ± 70 µM with ATDGDP-L-BD and around 3 µM with BRM AT-L-BD WT (BRM-B) [1].

B2: DNA.FA 12 bp dsDNA (dsDNA)
DNA 1: CCTCAATTGGTC
DNA 2: GACCAATTGAGG
As for B2, the figures for the dissociation constant Kd with BRM AT-L-BD WT (BRM-B) [2] and in the data set with AT-LANAA-BD were 8 ± 1 µM and 4 ± 1 µM, respectively.
